The chains are these.
B1: Thermotoga maritima FtsZ (natural protein, UniProt O08398 1-351, looked up)
chain: MGFDLDVEKKKENRNIPQANNLKIKVIGVGGAGNNAINRMIEIGIHGVEFVAVNTDLQVLEASNADVKIQIGENITRGLGAGGRPEIGEQAALESEEKIREVLQDTHMVFITAGFGGGTGTGASPVIAKIAKEMGILTVAIVTTPFYFEGPERLKKAIEGLKKLRKHVDTLIKISNNKLMEELPRDVKIKDAFLKADETLHQGVKGISELITKRGYINLDFADIESVMKDAGAAILGIGVGKGEHRAREAAKKAMESKLIEHPVENASSIVFNITAPSNIRMEEVHEAAMIIRQNSSEDADVKFGLIFDDEVPDDEIRVIFIATRFPDEDKILFPEGDIPAIYRYGLEGLL
notes: FtsZ of Thermotoga maritima; 'completely unmodified'; the C-terminal tail was verified by ESMS to be intact after purification; It says 'completely unmodified' with intact C-terminal tails; also called TmFtsZ; source: purified as described previously (Szwedziak et al., 2012)
B2: Thermotoga maritima FtsA (natural protein, UniProt Q9WZU0 1-419, looked up)
chain: MIDLSKTVFYTSIDIGSRYIKGLVLGKRDQEWEALAFSSVKSRGLDEGEIKDAIAFKESVNTLLKELEEQLQKSLRSDFVISFSSVSFEREDTVIERDFGEEKRSITLDILSEMQSEALEKLKENGKTPLHIFSKRYLLDDERIVFNPLDMKASKIAIEYTSIVVPLKVYEMFYNFLQDTVKSPFQLKSSLVSTAEGVLTTPEKDRGVVVVNLGYNFTGLIAYKNGVPIKISYVPVGMKHVIKDVSAVLDTSFEESERLIITHGNAVYNDLKEEEIQYRGLDGNTIKTTTAKKLSVIIHARLREIMSKSKKFFREVEAKIVEEGEIGIPGGVVLTGGGAKIPRINELATEVFKSPVRTGCYANSDRPSIINADEVANDPSFAAAFGNVFAVSENPYEETPVKSENPLKKIFRLFKELME
notes: FtsA of Thermotoga maritima; 'completely unmodified'; the C-terminal tail (amphipathic helix) was verified by ESMS to be intact after purification; It says 'completely unmodified' with intact C-terminal tails; also called TmFtsA; source: purified as described previously (Szwedziak et al., 2012)

Data set [1] deals with the molecule itself. Kind of data set: electron cryomicroscopy and cryotomography of liposomes; TmFtsZ (30 uM) and TmFtsA (10 uM) encapsulated in liposomes of E. coli total lipid extract by dilution of CHAPS; 0.5 mM MgGTP, MgGMPCPP or no nucleotide; TEN100 7.5 buffer; room temperature.
Data set [2] deals with B2. Kind of data set: transmission electron cryomicroscopy of liposomes; proteins on the outside of liposomes of E. coli total lipid extract; TmFtsA 20 uM, TmFtsZ 60 uM or both; 50 mM Tris/HCl, 100 mM NaCl, 1 mM EDTA, 1 mM NaN3, pH 7.5; room temperature. The following applies: both partners purified.

B1: the binding result in data set [1] and in data set [2] was “binds” in each case.
On to B2, for which, in data set [1], the binding result is given as “binds”.

For the origin of these results see publication PMC4383033, “Architecture of the ring formed by the tubulin homologue FtsZ in bacterial cell division” (eLife, 2014).
